Measurements from patent publication US20220009993A1.

Molecular target: CD19 on CD19+ cells (Nalm6 and Namalwa) (human) (UniProt P15391)
Assay: cell-based or functional assay

Chain of UniProt P15391 (P15391 20-556): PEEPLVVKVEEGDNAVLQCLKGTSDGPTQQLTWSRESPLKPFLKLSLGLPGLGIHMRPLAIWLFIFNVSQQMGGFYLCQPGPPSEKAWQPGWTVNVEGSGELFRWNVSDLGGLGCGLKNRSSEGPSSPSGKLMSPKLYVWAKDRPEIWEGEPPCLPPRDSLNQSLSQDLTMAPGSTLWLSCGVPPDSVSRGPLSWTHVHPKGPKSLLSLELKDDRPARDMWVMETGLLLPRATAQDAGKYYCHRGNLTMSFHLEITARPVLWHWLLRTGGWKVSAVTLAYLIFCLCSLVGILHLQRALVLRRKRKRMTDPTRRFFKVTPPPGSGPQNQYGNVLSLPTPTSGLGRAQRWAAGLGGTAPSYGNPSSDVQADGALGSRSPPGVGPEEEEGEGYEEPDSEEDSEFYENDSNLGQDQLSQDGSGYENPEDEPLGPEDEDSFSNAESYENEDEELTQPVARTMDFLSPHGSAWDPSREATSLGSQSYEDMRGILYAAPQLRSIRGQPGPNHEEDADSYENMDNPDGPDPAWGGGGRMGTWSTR

## ARI, a second-generation anti-CD19 CAR, expressed on primary T cells from the AWARI lentiviral vector (AW promoter, SEQ ID NO 1)
  specific lysis of CD19+ cells (Nalm6, Namalwa) after 48 h co-culture, relative to non-transduced T cells: 70 to 80%
